Results on 125 sequences are retold here after the supplement of paper PMC9112550, “Optimization of the antimicrobial peptide Bac7 by deep mutational scanning” (BMC Biology, 2022).
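Further: peptides expressed intracellularly from a pBAD plasmid library in pooled LB shake-flask culture, induced with 0.3% L-arabinose, DNA abundance read by NGS, three biological replicates, DESeq2 with apeglm shrinkage.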

The test system of the series is Escherichia coli TOP10. Kind of series: shrunken log2 fold change of peptide-encoding DNA abundance (4.5 h post-induction vs induction); higher = less antimicrobial activity (less host growth inhibition). The note with it: time post-induction: 4.5 h; library: site-saturation at positions 5, 18, 19, 20.
Consider RRIRIRPPRLPRPRPRPQTNPRP, for which the “shrunken log2 fold change” value was -0.423.

With RRIRWRPPRLPRPRPRPANSPRP, the “shrunken log2 fold change” value turned out to be 0.0236.

Regarding RRIRDRPPRLPRPRPRPFESPRP, the “shrunken log2 fold change” value is -0.00133.

Take RRIRRRPPRLPRPRPRPRITPRP: the “shrunken log2 fold change” value stood at 0.186.

As to RRIRARPPRLPRPRPRPMFTPRP, the “shrunken log2 fold change” value is -0.0981.

For RRIRTRPPRLPRPRPRPKGQPRP, the “shrunken log2 fold change” value is 0.0118.

On to RRIRCRPPRLPRPRPRPPEFPRP, for which the “shrunken log2 fold change” value was determined as 0.0967.

Turning to RRIRCRPPRLPRPRPRPGGYPRP, the “shrunken log2 fold change” value is 0.0874.

As for RRIRVRPPRLPRPRPRPRYYPRP, the “shrunken log2 fold change” value is -0.0159.

RRIRTRPPRLPRPRPRPDVMPRP: the “shrunken log2 fold change” value was -0.00136.

For the sequence RRIRVRPPRLPRPRPRPTSWPRP, the “shrunken log2 fold change” value is 0.383.

On to RRIRHRPPRLPRPRPRPFGVPRP, for which the “shrunken log2 fold change” value was -0.326.

In the case of RRIRNRPPRLPRPRPRPMKFPRP, the “shrunken log2 fold change” value was -0.000903.

Consider RRIRLRPPRLPRPRPRPIAYPRP, for which the “shrunken log2 fold change” value was -0.0152.

Take RRIRKRPPRLPRPRPRPYIFPRP: the “shrunken log2 fold change” value is -0.129.

On to RRIRSRPPRLPRPRPRPHQWPRP, for which the “shrunken log2 fold change” value is -0.144.

For the sequence RRIRKRPPRLPRPRPRPYVKPRP, the “shrunken log2 fold change” value was -0.312.

Take RRIRQRPPRLPRPRPRPVKEPRP: the “shrunken log2 fold change” value is -0.0231.

Turning to RRIRQRPPRLPRPRPRPIHSPRP, the “shrunken log2 fold change” value is -0.138.

Turning to RRIRFRPPRLPRPRPRPELNPRP, the “shrunken log2 fold change” value was found to be 0.164.

As for RRIRMRPPRLPRPRPRPEWEPRP, the “shrunken log2 fold change” value is -0.00306.

As for RRIRERPPRLPRPRPRPFKTPRP, the “shrunken log2 fold change” value is -0.0273.

With RRIRQRPPRLPRPRPRPQTPPRP, the “shrunken log2 fold change” value is 0.0705.

On to RRIRERPPRLPRPRPRPINCPRP, for which the “shrunken log2 fold change” value is -0.00179.

For RRIRQRPPRLPRPRPRPAKMPRP, the “shrunken log2 fold change” value is -0.207.

RRIRARPPRLPRPRPRPWVCPRP: the “shrunken log2 fold change” value is -0.136.

RRIRIRPPRLPRPRPRPCPSPRP: the “shrunken log2 fold change” value was -0.186.

For RRIRWRPPRLPRPRPRPLATPRP, the “shrunken log2 fold change” value is 0.766.

Turning to RRIRSRPPRLPRPRPRPGGNPRP, the “shrunken log2 fold change” value was 0.163.

On to RRIRSRPPRLPRPRPRPNYYPRP, for which the “shrunken log2 fold change” value was -0.822.

As for RRIRDRPPRLPRPRPRPQQDPRP, the “shrunken log2 fold change” value came to 0.0798.

As for RRIRQRPPRLPRPRPRPKDMPRP, the “shrunken log2 fold change” value is 0.0374.

As to RRIRQRPPRLPRPRPRPSQMPRP, the “shrunken log2 fold change” value is -0.0442.

With RRIRVRPPRLPRPRPRPHVWPRP, the “shrunken log2 fold change” value is -0.145.

For the sequence RRIRCRPPRLPRPRPRPQMWPRP, the “shrunken log2 fold change” value turned out to be 0.0606.

On to RRIRTRPPRLPRPRPRPYLFPRP, for which the “shrunken log2 fold change” value was -0.71.

As to RRIRHRPPRLPRPRPRPLNEPRP, the “shrunken log2 fold change” value was -0.124.

As for RRIRARPPRLPRPRPRPLQDPRP, the “shrunken log2 fold change” value amounted to 0.25.

Regarding RRIRTRPPRLPRPRPRPYVTPRP, the “shrunken log2 fold change” value was -0.203.

Turning to RRIRPRPPRLPRPRPRPMPFPRP, the “shrunken log2 fold change” value is -0.349.

RRIRSRPPRLPRPRPRPCLMPRP: the “shrunken log2 fold change” value was -0.135.

For the sequence RRIRERPPRLPRPRPRPGYYPRP, the “shrunken log2 fold change” value was -0.0487.

With RRIRRRPPRLPRPRPRPKGKPRP, the “shrunken log2 fold change” value turned out to be 0.195.

With RRIRIRPPRLPRPRPRPQDQPRP, the “shrunken log2 fold change” value is -0.242.

For the sequence RRIRHRPPRLPRPRPRPQFTPRP, the “shrunken log2 fold change” value was -0.182.

RRIRWRPPRLPRPRPRPKCEPRP: the “shrunken log2 fold change” value came out at 0.359.

For the sequence RRIRGRPPRLPRPRPRPVLVPRP, the “shrunken log2 fold change” value worked out at 0.628.

In the case of RRIRDRPPRLPRPRPRPHIMPRP, the “shrunken log2 fold change” value was -0.981.

On to RRIRWRPPRLPRPRPRPINYPRP, for which the “shrunken log2 fold change” value is -0.387.

RRIRCRPPRLPRPRPRPRLGPRP: the “shrunken log2 fold change” value is 0.485.

RRIRRRPPRLPRPRPRPLRKPRP: the “shrunken log2 fold change” value was found to be 0.793.

In the case of RRIRCRPPRLPRPRPRPPTRPRP, the “shrunken log2 fold change” value was found to be 0.645.

As for RRIRFRPPRLPRPRPRPMFNPRP, the “shrunken log2 fold change” value was -0.797.

On to RRIRRRPPRLPRPRPRPFKHPRP, for which the “shrunken log2 fold change” value was -0.212.

Consider RRIRSRPPRLPRPRPRPEIGPRP, for which the “shrunken log2 fold change” value is 0.291.

RRIRTRPPRLPRPRPRPEQGPRP: the “shrunken log2 fold change” value was 0.196.

For RRIRFRPPRLPRPRPRPCFMPRP, the “shrunken log2 fold change” value is -0.213.

As for RRIRHRPPRLPRPRPRPCYYPRP, the “shrunken log2 fold change” value was -0.258.

For RRIRQRPPRLPRPRPRPPCQPRP, the “shrunken log2 fold change” value turned out to be 0.0396.

For RRIRYRPPRLPRPRPRPRPVPRP, the “shrunken log2 fold change” value is 0.0983.

With RRIRERPPRLPRPRPRPLYWPRP, the “shrunken log2 fold change” value is -0.383.

On to RRIRYRPPRLPRPRPRPCGTPRP, for which the “shrunken log2 fold change” value was -0.193.

As for RRIRTRPPRLPRPRPRPNDCPRP, the “shrunken log2 fold change” value stood at 0.0184.

For RRIRLRPPRLPRPRPRPAGDPRP, the “shrunken log2 fold change” value amounted to 0.297.

As to RRIRKRPPRLPRPRPRPYQAPRP, the “shrunken log2 fold change” value is 0.134.

As to RRIRFRPPRLPRPRPRPQAVPRP, the “shrunken log2 fold change” value came out at 0.0175.

For RRIRRRPPRLPRPRPRPDNQPRP, the “shrunken log2 fold change” value was 0.0853.

Turning to RRIRMRPPRLPRPRPRPSDWPRP, the “shrunken log2 fold change” value was 0.998.

For RRIRERPPRLPRPRPRPSTSPRP, the “shrunken log2 fold change” value is -0.145.

Take RRIRSRPPRLPRPRPRPYLAPRP: the “shrunken log2 fold change” value is -0.251.

As for RRIRMRPPRLPRPRPRPIHAPRP, the “shrunken log2 fold change” value was -0.0962.

Take RRIRARPPRLPRPRPRPFGAPRP: the “shrunken log2 fold change” value stood at 0.929.

As to RRIRFRPPRLPRPRPRPTWTPRP, the “shrunken log2 fold change” value was -0.11.

In the case of RRIRNRPPRLPRPRPRPINVPRP, the “shrunken log2 fold change” value was -0.0327.

With RRIRSRPPRLPRPRPRPEKDPRP, the “shrunken log2 fold change” value stood at 0.124.

Consider RRIRMRPPRLPRPRPRPEGRPRP, for which the “shrunken log2 fold change” value came out at 3.21.

On to RRIRYRPPRLPRPRPRPAELPRP, for which the “shrunken log2 fold change” value is -0.187.

As to RRIRARPPRLPRPRPRPLIFPRP, the “shrunken log2 fold change” value is 0.000397.

Regarding RRIRPRPPRLPRPRPRPESNPRP, the “shrunken log2 fold change” value is 0.0165.

For the sequence RRIRMRPPRLPRPRPRPHYCPRP, the “shrunken log2 fold change” value was -0.116.

RRIRVRPPRLPRPRPRPPKEPRP: the “shrunken log2 fold change” value was 0.0261.

Take RRIRWRPPRLPRPRPRPLEWPRP: the “shrunken log2 fold change” value stood at 0.0624.

With RRIRARPPRLPRPRPRPLIGPRP, the “shrunken log2 fold change” value is 0.107.

Consider RRIRDRPPRLPRPRPRPSAGPRP, for which the “shrunken log2 fold change” value stood at 0.67.

For the sequence RRIRRRPPRLPRPRPRPTEAPRP, the “shrunken log2 fold change” value is 0.0804.

For the sequence RRIRPRPPRLPRPRPRPICSPRP, the “shrunken log2 fold change” value is -0.014.

As for RRIRSRPPRLPRPRPRPKRVPRP, the “shrunken log2 fold change” value came out at 0.0219.

With RRIRWRPPRLPRPRPRPKYCPRP, the “shrunken log2 fold change” value was -0.245.

With RRIRGRPPRLPRPRPRPFRFPRP, the “shrunken log2 fold change” value amounted to 0.485.

With RRIRCRPPRLPRPRPRPEVNPRP, the “shrunken log2 fold change” value is -0.00709.

As to RRIRKRPPRLPRPRPRPTETPRP, the “shrunken log2 fold change” value stood at 0.114.

For the sequence RRIRTRPPRLPRPRPRPTPCPRP, the “shrunken log2 fold change” value is 0.124.

In the case of RRIRYRPPRLPRPRPRPAHKPRP, the “shrunken log2 fold change” value is 0.00824.

In the case of RRIRIRPPRLPRPRPRPCYMPRP, the “shrunken log2 fold change” value was -0.49.

With RRIRTRPPRLPRPRPRPMQFPRP, the “shrunken log2 fold change” value is -0.0258.

On to RRIRDRPPRLPRPRPRPNSAPRP, for which the “shrunken log2 fold change” value is -1.36.

For the sequence RRIRYRPPRLPRPRPRPNKVPRP, the “shrunken log2 fold change” value is -0.596.

In the case of RRIRMRPPRLPRPRPRPRDKPRP, the “shrunken log2 fold change” value was found to be 0.0704.

For RRIRCRPPRLPRPRPRPDAAPRP, the “shrunken log2 fold change” value is 1.03.

Regarding RRIRWRPPRLPRPRPRPDPHPRP, the “shrunken log2 fold change” value turned out to be 0.135.

Take RRIRTRPPRLPRPRPRPSYGPRP: the “shrunken log2 fold change” value was -0.259.

For RRIRIRPPRLPRPRPRPVMLPRP, the “shrunken log2 fold change” value is -0.776.

On to RRIRFRPPRLPRPRPRPCIEPRP, for which the “shrunken log2 fold change” value was -0.422.

On to RRIRGRPPRLPRPRPRPHLWPRP, for which the “shrunken log2 fold change” value stood at 0.942.

With RRIRVRPPRLPRPRPRPVVNPRP, the “shrunken log2 fold change” value was -0.0959.

For the sequence RRIRQRPPRLPRPRPRPWITPRP, the “shrunken log2 fold change” value is -0.0754.

For the sequence RRIRARPPRLPRPRPRPDNIPRP, the “shrunken log2 fold change” value is -0.256.

Consider RRIRDRPPRLPRPRPRPLVIPRP, for which the “shrunken log2 fold change” value is -0.0438.

RRIRERPPRLPRPRPRPHPLPRP: the “shrunken log2 fold change” value is -0.0971.

Consider RRIRARPPRLPRPRPRPRSQPRP, for which the “shrunken log2 fold change” value amounted to 0.00929.

RRIRERPPRLPRPRPRPADNPRP: the “shrunken log2 fold change” value was -0.03.

Consider RRIRARPPRLPRPRPRPTLCPRP, for which the “shrunken log2 fold change” value was 0.392.

On to RRIRYRPPRLPRPRPRPHLNPRP, for which the “shrunken log2 fold change” value was -1.15.

As for RRIRNRPPRLPRPRPRPYDSPRP, the “shrunken log2 fold change” value is -0.284.

RRIRYRPPRLPRPRPRPGMNPRP: the “shrunken log2 fold change” value was -0.227.

Turning to RRIRWRPPRLPRPRPRPGMMPRP, the “shrunken log2 fold change” value was 0.113.

As for RRIRTRPPRLPRPRPRPFYCPRP, the “shrunken log2 fold change” value was -0.505.

With RRIRYRPPRLPRPRPRPKTLPRP, the “shrunken log2 fold change” value was -0.459.

With RRIRTRPPRLPRPRPRPYVLPRP, the “shrunken log2 fold change” value was -0.321.

For the sequence RRIRWRPPRLPRPRPRPLTHPRP, the “shrunken log2 fold change” value is -0.00362.

Consider RRIRERPPRLPRPRPRPLCSPRP, for which the “shrunken log2 fold change” value was -0.512.

For RRIRKRPPRLPRPRPRPYFSPRP, the “shrunken log2 fold change” value was -0.178.

As to RRIRDRPPRLPRPRPRPFIQPRP, the “shrunken log2 fold change” value was -0.238.

RRIRDRPPRLPRPRPRPEGWPRP: the “shrunken log2 fold change” value came out at 1.78.

For RRIRQRPPRLPRPRPRPNVKPRP, the “shrunken log2 fold change” value was 0.0117.
